Results published in publication PMC4756693, “Structural analysis of disease-related TDP-43 D169G mutation: linking enhanced stability and caspase cleavage efficiency to protein accumulation”.

Target: TDP-43 RRM1 (human, UniProt Q13148 101-191)
Assay: X-ray crystallography; crystals at pH 5.5, PEG 3350, ammonium acetate; Co-crystallization, protein:DNA 1:1.2; protein in 50 mM HEPES pH 7.5, 100 mM NaCl, 10 mM bME; hanging drop at room temperature (stated for RRM1/DNA). (TG)15 Kd
Conditions: protein: recombinant; tags: N-terminal His; single strand; 8 and 9 nt modelled in the two RRM1 complexes

Chain of TDP-43 RRM1 (Q13148 101-191): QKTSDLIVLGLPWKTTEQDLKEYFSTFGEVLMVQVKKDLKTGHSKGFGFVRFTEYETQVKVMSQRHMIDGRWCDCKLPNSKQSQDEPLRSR

Binder: GTTGAGCGTT (ssDNA, none) [10-nt ssDNA]
- binding result: binds
